To fix the notation:
B1: LINE1-full (parent)
chain: UACGUAGGUGGUUUUCCCCUGAUAGUGCUAAGGGGGCCUGGAAGUUUGGACUGGGCAGAGCUCAACACAGCGUGGCAAAGUGGCUGUGGCUAGACUGCCUCUCUGGAUUCCUCGUCACUCAGCAGGGCAUCUCUGAGAGAAAUGCC

The data set covers variants of B1. The data set can be described thus: self-cleavage, relative activity (ratio to wild type); higher = more cleavage; in vitro, sequencing; the parent is a self-cleaving ribozyme.
Consider G36U A79G, for which the self-cleavage came out at 1.3.
As for C37U U104C, the self-cleavage came out at 1.28.
With C37U U104A the figure was 0.59; with C37U U100C, 1.66.
Regarding U39A C66U, the self-cleavage is 0.05.
To C38A U109A belongs 1.36.
With G35A A117G the figure was 1.7; with G35A A117U, 0.56; with G34A U47C, 1.18.
As to C38U A78G, the self-cleavage was 1.28.
C37U G54U: the self-cleavage came to 0.41.
With G35U A69G the figure was 0.6; with G34U U115C, 1.84.
To G35C C113A belongs 1.68.
To C38U A140G belongs 1.24; to U39A G88A, 0.08; to G35U U46A, 1.07.
For the variant U39A G86A, the self-cleavage came to 0.08.
To U39A C133U belongs 1.41; to G35A A79G, 1.36; to C38G A43G, 1.6.
To U39A A142G belongs 1.53; to C37U U102A, 1.19; to C38U U119C, 1.47.
For C38U U119A, the self-cleavage worked out at 1.24.
To G36C U132C belongs 1.27.
As for G35A G72A, the self-cleavage is 1.18.
With C37U A57U the figure was 0.05; with G35U U91C, 0.52.
To C37A U87G belongs 0.12; to G34A A107U, 1.2.
C37G U45C: the self-cleavage stood at 1.6.
To G34U U62C belongs 0.02; to G34U A136G, 1.54; to G34C A138G, 2.05.
With C37U U134C the figure was 1.25; with C38U U73C, 1.76.
With C37U U132C the figure was 1.21.
On to C37G A117G, for which the self-cleavage was determined as 1.66.
To C38U C84G belongs 0.09; to C38U C98G, 0.12; to C37U A79G, 1.1.
To G34U U108C belongs 1.56; to G36A A69G, 0.34.
With G36C A121G, the self-cleavage came out at 1.39.
To G35A A50G belongs 0.58.
To G34C C37U belongs 0.84; to G34U A42U, 1.15.
With C38U C101U, the self-cleavage was 1.82.
With G36C U47C, the self-cleavage came out at 0.92.
Consider G36U A78G, for which the self-cleavage is 1.5.
In the case of G36C U96C, the self-cleavage was 0.17.
Take U39A A79G: the self-cleavage turned out to be 1.35.
Take G35C U143A: the self-cleavage came out at 1.39.
Regarding G35C U143G, the self-cleavage worked out at 0.86.
To G36U A141G belongs 0.91; to C38U A92G, 0.05; to C38A A129G, 1.46.
To G34A G72A belongs 1.24.
Take G36C A94G: the self-cleavage was found to be 0.32.
For G36A U62C, the self-cleavage is 0.05.
With G34A U132A the figure was 1.51; with G34A U102A, 1.16.
With C37U C68A the figure was 0.03; with C38U U87C, 0.06; with G34A C146A, 1.39.
As to G35U A129G, the self-cleavage amounted to 1.57.
With G36A A77G the figure was 1.35; with G35A A65G, 0.05.
With G34A U96A the figure was 0.05; with G34A U96G, 0.09; with G34A U96C, 0.05.
With G36A U45C the figure was 1.81; with G34U C63A, 0.04.
For the variant G36U A69G, the self-cleavage turned out to be 0.
To U39A C111A belongs 1.55; to C37U A124G, 0.59.
With C37U A124U the figure was 1.12.
Turning to G36C G82U, the self-cleavage worked out at 1.65.
For G34U A67G, the self-cleavage turned out to be 0.54.
With C38A U96G the figure was 0.1; with G34U U46A, 1.32.
With C38U A136G the figure was 1.89.
Consider C37G A129G, for which the self-cleavage came to 0.9.
Consider G35A U100C, for which the self-cleavage came out at 1.36.
Regarding C37G U132C, the self-cleavage is 0.94.
To C37G U132A belongs 1.23; to G34A C37U, 1.1.
With G35U U81A the figure was 1.82; with G36A C84U, 0.15; with C37U C123U, 1.67.
With C37A U91C the figure was 0.41.
As for U39A A77U, the self-cleavage is 1.38.
For the variant G36A A43G, the self-cleavage worked out at 1.07.
As to G36A U47C, the self-cleavage worked out at 0.9.
Consider U39A G54A, for which the self-cleavage was determined as 0.66.
To C38U G144A belongs 1.36; to G34A A124G, 0.
To G34A A124U belongs 1.32.
Turning to U39A A43C, the self-cleavage came out at 0.66.
With U39A A43G the figure was 0.63.
With G35A A57U the figure was 0.05.
As to G35U A142G, the self-cleavage amounted to 1.56.
U39A A50G: the self-cleavage worked out at 1.29.
G35A A142G: the self-cleavage was determined as 1.14.
To C37U A59G belongs 0.07.
To G36C U39G belongs 0.76; to G36C A141G, 1.36; to G34A U62C, 0.02.
Take G34A A78U: the self-cleavage was 1.75.
For the variant G34A A78G, the self-cleavage came to 1.27.
With C37U U143C the figure was 0.84.
With G34C U115C the figure was 1.82; with G34U U100C, 1.5; with C38A A124G, 0.68.
To G34U A50U belongs 0.39; to C37A G58A, 0.03.
Regarding G35A A107U, the self-cleavage was determined as 1.41.
With G36A U119A the figure was 1.36; with G36A U119C, 2.42; with G35C U91C, 0.81.
To U39A G93A belongs 0.04; to G34U A124U, 1.6; to G34A U130C, 1.32.
To G36C C146U belongs 1.29; to G36C C146G, 1.21; to C38U A141G, 0.84.
For the variant C37U U47A, the self-cleavage was determined as 1.41.
To C38A A140U belongs 1.1; to G34A U87G, 0.2.
With C37A U45C the figure was 1.01; with G35U A43U, 1.33.
As to G36A G105A, the self-cleavage was determined as 1.46.
With G36A U115A the figure was 1.39; with G36A U115C, 1.53; with G34U U104C, 1.34.
In the case of U39A G135A, the self-cleavage came out at 1.57.
With U39A C128G the figure was 1.62.
Regarding U39A A140G, the self-cleavage stood at 1.36.
Take G36C U91C: the self-cleavage amounted to 0.51.
To G34C U96C belongs 0.14; to G34C A124G, 2.03; to G34C A124U, 1.91.
With U39A G97A the figure was 0.12.
With G34C U143C the figure was 2; with G34A A140U, 1.29; with C38U U52A, 1.25.
Regarding C38U U52C, the self-cleavage was 1.44.
With C38U A129U, the self-cleavage worked out at 0.31.
On to C38U A138C, for which the self-cleavage worked out at 1.46.
To C37A A136G belongs 1.04.
Consider G35A U143C, for which the self-cleavage is 1.04.
With C37G U115C the figure was 1.44; with G36C U62C, 0.05; with C38U A94G, 0.29.
With C38U A79G the figure was 1.29.
To G35U U112C belongs 0.75; to U39A A141G, 1.55.
For the variant U39A A141U, the self-cleavage was 1.45.
Take U39A C90A: the self-cleavage came to 0.03.
To U39A C90G belongs 0.04.
With U39A A121G the figure was 1.69.
With U39A A121U the figure was 1.58; with G35A A140G, 0.81; with G34A G114A, 1.47.
As to G35U A65U, the self-cleavage amounted to 0.12.
Turning to C37U G53A, the self-cleavage was determined as 1.33.
